Experimental data reported in paper PMC7960543 (The Journal of Biological Chemistry, 2021).
Bridge positions count the residues as written; N and C are the ends. Ends that are not written are not given here.

B4: recombinant soluble CD40L (residues 118–261) with no N-terminal KGD motif, wild type (ligand)
chain: QNPQIAAHVISEASSKTTSVLQWAEKGYYTMSNNLVTLENGKQLTVKRQGLYYIYAQVTFCSNREASSQAPFIASLCLKSPGRFERILLRAANTHSSAKPCGQQSIHLGGVFELQPGASVFVNVTDPSQVSHGTGFTSFGLLKL
notes: CD40L (CD40 ligand), residues 118–261, without the KGD motif (residues 115–117); the His tag is known from detection with anti-His antibody; also called sCD40L; WT sCD40L; source: recombinant, synthesized as described (13)
B8: CD40 fragment (residues 21–144) fused to GST (domain or fragment, UniProt P25942 21-144, looked up)
chain: EPPTACREKQYLINSQCCSLCQPGQKLVSDCTEFTETECLPCGESEFLDTWNRETHCHQHKYCDPNLGLRVQQKGTSETDTICTCEEGWHCTSEACESCVLHRSCSPGFGVKQIATGVSDTICE
notes: also called CD40 fused to GST

Experiments:
[1] = biological target: B4; assay: ELISA; CD40L immobilized; cyclic site 2 peptides of β1 or β3 fused to GST in solution; bound GST measured with HRP-conjugated anti-GST; conditions: both partners purified
[2] = biological target: T1, recombinant soluble integrin αvβ3, P06756;P05106; assay: ELISA; conditions: chain shown with the change; immobilized CD40L mutants 10 μg/ml; soluble αvβ3 5 μg/ml in HEPES-Tyrodes buffer, 1 mM Mn2+; detection with anti-β3 (AV10); parent: est. 0.48; read off a plot
T1 chain 1: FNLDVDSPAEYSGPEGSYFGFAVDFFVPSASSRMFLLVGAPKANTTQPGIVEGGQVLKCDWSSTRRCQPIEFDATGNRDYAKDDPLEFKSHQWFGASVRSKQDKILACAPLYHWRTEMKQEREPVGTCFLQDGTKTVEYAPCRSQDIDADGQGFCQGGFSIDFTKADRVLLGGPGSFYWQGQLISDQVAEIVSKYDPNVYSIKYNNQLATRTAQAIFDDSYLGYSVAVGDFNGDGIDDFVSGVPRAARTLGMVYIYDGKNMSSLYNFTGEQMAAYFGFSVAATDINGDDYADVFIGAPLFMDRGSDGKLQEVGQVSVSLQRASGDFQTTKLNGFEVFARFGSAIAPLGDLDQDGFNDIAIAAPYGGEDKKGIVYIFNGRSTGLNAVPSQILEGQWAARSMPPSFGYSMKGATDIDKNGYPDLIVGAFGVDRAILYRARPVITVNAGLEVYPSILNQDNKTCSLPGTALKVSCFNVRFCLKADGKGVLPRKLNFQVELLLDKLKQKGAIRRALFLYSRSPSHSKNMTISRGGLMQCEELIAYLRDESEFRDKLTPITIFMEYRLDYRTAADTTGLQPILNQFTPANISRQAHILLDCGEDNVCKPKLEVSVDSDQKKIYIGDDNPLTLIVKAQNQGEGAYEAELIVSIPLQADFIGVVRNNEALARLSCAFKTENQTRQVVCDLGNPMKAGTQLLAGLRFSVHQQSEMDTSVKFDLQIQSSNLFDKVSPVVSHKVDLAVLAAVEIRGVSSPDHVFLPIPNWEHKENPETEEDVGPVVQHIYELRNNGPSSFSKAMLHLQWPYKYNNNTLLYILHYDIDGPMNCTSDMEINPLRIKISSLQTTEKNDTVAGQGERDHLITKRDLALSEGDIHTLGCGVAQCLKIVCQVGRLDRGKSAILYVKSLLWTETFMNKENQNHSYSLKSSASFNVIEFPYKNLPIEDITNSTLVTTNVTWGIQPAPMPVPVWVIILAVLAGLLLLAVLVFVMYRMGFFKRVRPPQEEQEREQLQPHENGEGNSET
T1 chain 2: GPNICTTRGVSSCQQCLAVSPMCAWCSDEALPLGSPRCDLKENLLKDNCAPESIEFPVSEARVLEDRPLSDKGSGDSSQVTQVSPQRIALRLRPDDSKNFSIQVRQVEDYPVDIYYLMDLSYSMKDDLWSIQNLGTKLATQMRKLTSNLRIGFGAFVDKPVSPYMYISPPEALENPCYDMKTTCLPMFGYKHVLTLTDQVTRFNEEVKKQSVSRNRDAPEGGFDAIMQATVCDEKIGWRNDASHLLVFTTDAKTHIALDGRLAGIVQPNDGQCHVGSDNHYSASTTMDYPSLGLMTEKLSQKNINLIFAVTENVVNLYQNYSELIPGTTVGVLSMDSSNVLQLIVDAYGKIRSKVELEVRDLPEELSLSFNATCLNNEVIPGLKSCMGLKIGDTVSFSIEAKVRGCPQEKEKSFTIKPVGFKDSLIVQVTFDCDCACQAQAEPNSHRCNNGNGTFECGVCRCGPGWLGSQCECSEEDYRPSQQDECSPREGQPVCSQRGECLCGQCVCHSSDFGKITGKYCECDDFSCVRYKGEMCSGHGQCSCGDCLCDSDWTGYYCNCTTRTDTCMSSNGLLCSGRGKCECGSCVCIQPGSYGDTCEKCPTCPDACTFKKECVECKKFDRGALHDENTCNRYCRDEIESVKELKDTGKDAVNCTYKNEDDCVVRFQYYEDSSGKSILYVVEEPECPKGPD

[3] = biological target: B8; assay: ELISA; CD40 fragment (21–144) fused to GST coated on wells (100 μg/ml in PBS); sCD40L (WT or mutant) incubated 1 h; bound sCD40L measured with HRP-conjugated anti-His; conditions: both partners purified
[4] = biological target: T2, sCD40L (residues 118–261) K143T HIGM1 mutant (UniProt P29965 118-261, K143T); assay: as above; conditions: both partners purified
T2 construct: CD40L residues 118–261; HIGM1 mutation; source: recombinant, site-directed mutagenesis of WT sCD40L, synthesized as for WT
T2 sequence (looked up): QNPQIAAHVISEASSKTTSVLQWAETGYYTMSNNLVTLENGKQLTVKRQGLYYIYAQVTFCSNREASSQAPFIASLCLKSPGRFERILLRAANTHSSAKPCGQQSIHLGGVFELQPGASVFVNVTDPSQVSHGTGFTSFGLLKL

[5] = biological target: T3, sCD40L (residues 118–261) S128R/E129G HIGM1 mutant (UniProt P29965 118-261, S128R | E129G); assay: as above; conditions: both partners purified
T3 construct: CD40L residues 118–261; HIGM1 (hyper-IgM syndrome type 1) mutation; source: recombinant, site-directed mutagenesis of WT sCD40L, synthesized as for WT
T3 sequence (looked up): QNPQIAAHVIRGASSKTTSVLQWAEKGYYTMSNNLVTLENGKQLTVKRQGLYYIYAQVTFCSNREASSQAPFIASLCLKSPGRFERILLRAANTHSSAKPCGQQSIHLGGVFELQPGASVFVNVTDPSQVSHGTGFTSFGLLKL

[6] = biological target: T4, sCD40L (residues 118–261) G144E HIGM1 mutant (UniProt P29965 118-261, G144E); assay: as above; conditions: both partners purified
T4 construct: CD40L residues 118–261; HIGM1 mutation; source: recombinant, site-directed mutagenesis of WT sCD40L, synthesized as for WT
T4 sequence (looked up): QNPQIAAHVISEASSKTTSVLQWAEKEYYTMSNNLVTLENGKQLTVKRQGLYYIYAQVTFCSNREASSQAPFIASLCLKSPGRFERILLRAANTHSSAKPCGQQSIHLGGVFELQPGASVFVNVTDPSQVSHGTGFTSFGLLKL

[7] = biological target: T5, sCD40L (residues 118–261) L155P HIGM1 mutant (UniProt P29965 118-261, L155P); assay: as above; conditions: both partners purified
T5 construct: CD40L residues 118–261; HIGM1 mutation; source: recombinant, site-directed mutagenesis of WT sCD40L, synthesized as for WT
T5 sequence (looked up): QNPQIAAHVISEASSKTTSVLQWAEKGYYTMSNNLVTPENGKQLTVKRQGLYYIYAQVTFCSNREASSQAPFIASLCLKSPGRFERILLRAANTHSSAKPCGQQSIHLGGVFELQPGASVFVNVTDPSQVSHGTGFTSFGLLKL

B1: disulfide-linked cyclic site 2 peptide of integrin β3 (C260–C288) fused to GST (peptide)
peptide: CRLAGIVQPNDGQSHVGSDNHYSASTTMC
modifications: disulfide 1-29; also: fused to GST
notes: also called cyclic site 2 peptide from β3; 29-mer cyclic β3 peptide
B1: binds [1].

B2: disulfide-linked cyclic site 2 peptide of integrin β1 (C268–C295) fused to GST (peptide)
peptide: CKLGGIVLPNDGQSHLENNMYTMSHYYC
modifications: disulfide 1-28; also: fused to GST
notes: integrin β1 residues 268–295 (site 2); Cloned in pGEX-2T6His; also called the corresponding β1 peptide; 28-mer cyclic β1 peptide
B2: binds [1].

B3: recombinant soluble CD40L (residues 118–261) with no N-terminal KGD motif, wild type S128R; E129G (protein)
chain: QNPQIAAHVIRGASSKTTSVLQWAEKGYYTMSNNLVTLENGKQLTVKRQGLYYIYAQVTFCSNREASSQAPFIASLCLKSPGRFERILLRAANTHSSAKPCGQQSIHLGGVFELQPGASVFVNVTDPSQVSHGTGFTSFGLLKL
B3 gave a response [2] of 0.046 OD450.

B4: binds [3].

B5: recombinant soluble CD40L (residues 118–261) with no N-terminal KGD motif, wild type L155P (protein)
chain: QNPQIAAHVISEASSKTTSVLQWAEKGYYTMSNNLVTPENGKQLTVKRQGLYYIYAQVTFCSNREASSQAPFIASLCLKSPGRFERILLRAANTHSSAKPCGQQSIHLGGVFELQPGASVFVNVTDPSQVSHGTGFTSFGLLKL
B5 showed a response [2] of 0.042 OD450.

B6: recombinant soluble CD40L (residues 118–261) with no N-terminal KGD motif, wild type G144E (protein)
chain: QNPQIAAHVISEASSKTTSVLQWAEKEYYTMSNNLVTLENGKQLTVKRQGLYYIYAQVTFCSNREASSQAPFIASLCLKSPGRFERILLRAANTHSSAKPCGQQSIHLGGVFELQPGASVFVNVTDPSQVSHGTGFTSFGLLKL
In the case of B6, the response [2] is reported as 0.4 OD450.

B7: recombinant soluble CD40L (residues 118–261) with no N-terminal KGD motif, wild type K143T (protein)
chain: QNPQIAAHVISEASSKTTSVLQWAETGYYTMSNNLVTLENGKQLTVKRQGLYYIYAQVTFCSNREASSQAPFIASLCLKSPGRFERILLRAANTHSSAKPCGQQSIHLGGVFELQPGASVFVNVTDPSQVSHGTGFTSFGLLKL
B7 showed a response [2] of 0.33 OD450.

B8: binds [4]; binds [5]; binds [6]. B8: binds [7].
